{
  "source": "patent US20130273053",
  "key": {"purified plasma factor B": {"molecular_target": "purified plasma factor B (UniProt P00751)", "sequence (P00751 26-764)": "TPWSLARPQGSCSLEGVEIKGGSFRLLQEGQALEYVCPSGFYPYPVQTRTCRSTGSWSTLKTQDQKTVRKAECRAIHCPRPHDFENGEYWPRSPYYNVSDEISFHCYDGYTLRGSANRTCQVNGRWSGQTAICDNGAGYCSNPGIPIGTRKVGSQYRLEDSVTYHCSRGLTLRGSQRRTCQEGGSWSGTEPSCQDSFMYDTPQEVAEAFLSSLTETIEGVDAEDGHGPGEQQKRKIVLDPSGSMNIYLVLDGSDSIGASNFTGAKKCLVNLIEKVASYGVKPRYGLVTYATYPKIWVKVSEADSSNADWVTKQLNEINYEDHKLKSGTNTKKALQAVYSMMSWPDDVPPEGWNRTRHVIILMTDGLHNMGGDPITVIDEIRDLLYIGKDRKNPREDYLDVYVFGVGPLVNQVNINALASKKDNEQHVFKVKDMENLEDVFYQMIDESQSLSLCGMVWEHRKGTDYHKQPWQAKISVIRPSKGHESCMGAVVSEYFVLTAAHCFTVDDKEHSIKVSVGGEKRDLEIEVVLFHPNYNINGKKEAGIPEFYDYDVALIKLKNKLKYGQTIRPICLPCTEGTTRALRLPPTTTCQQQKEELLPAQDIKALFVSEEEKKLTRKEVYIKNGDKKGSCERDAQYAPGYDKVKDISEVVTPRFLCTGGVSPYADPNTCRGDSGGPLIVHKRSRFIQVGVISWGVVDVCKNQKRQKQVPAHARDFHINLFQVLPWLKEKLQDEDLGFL"}, "ST-pro-factor D-His": {"molecular_target": "ST-pro-factor D-His (UniProt P00746)", "sequence (P00746 21-253)": "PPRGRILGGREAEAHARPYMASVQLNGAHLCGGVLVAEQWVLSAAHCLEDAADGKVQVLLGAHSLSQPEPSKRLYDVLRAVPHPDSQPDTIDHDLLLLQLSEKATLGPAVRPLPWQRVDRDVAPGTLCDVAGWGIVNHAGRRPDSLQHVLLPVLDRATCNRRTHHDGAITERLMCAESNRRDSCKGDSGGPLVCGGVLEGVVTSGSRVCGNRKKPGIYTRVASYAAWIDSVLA"}},
  "data": [
    {"substance": "full length recombinant human MASP-3 (active)", "values": [
      {"measurement": "factor B cleavage, Coomassie-stained SDS-PAGE, with C3(H2O)", "setting": "purified plasma factor B", "result": "either MASP-3 or pro-factor D are able to mediate factor B cleavage, as long as C3 is present"},
      {"measurement": "cleavage of pro-factor D substrate, Western blot", "setting": "ST-pro-factor D-His", "result": "only full length MASP-3 (lane 2) and the MASP-1 CCP1-CCP2-SP) fragment (lane 5) cleaved ST-pro-factor D-His6"},
      {"measurement": "cleavage of pro-factor D to factor D, Western blot, no mAb", "setting": "ST-pro-factor D-His", "result": "MASP-3 cleaves approximately 50% of pro-factor D into factor D"}
    ]}
  ]
}
